1 protein from patent US20220125907A1 (VAXCYTE, published 2022) can be followed below.

This series concerns the molecule itself. The series is described as follows: SEC-MALS of purified IpaB in solution (self-association). Background: In gel filtration, larger molecules generally elute earlier.

B1: Invasion Plasmid Antigen B (IpaB), wild type, full length (other)
chain: MHNVNTTTTGLSLAKILASTELGDNTIQAGNDAANKLFSLTIADLTANKNINTTNAHSTSNILIPELKAPKSLNASSQLTLLIGNLIQILGEKSLTALTNKITAWKSQQQARQQKNLEFSDKINTLLSETEGLTRDYEKQINKLKNADSKIKDLENKINQIQTRLSELDPDSPEKKKLSREEIQLTIKKDAAVKDRTLIEQKTLSIHSKLTDKSMQLEKEIDSFSAFSNTASAEQLSTQQKSLTGLASVTQLMATFIQLVGKNNEESLKNDLALFQSLQESRKTEMERKSDEYAAEVRKAEELNRVMGCVGKILGALLTIVSVVAAAFSGGASLALADVGLALMVTDAIVQAATGNSFMEQALNPIMKAVIEPLIKLLSDAFTKMLEGLGVDSKKAKMIGSILGAIAGALVLVAAVVLVATVGKQAAAKLAENIGKIIGKTLTDLIPKFLKNFSSQLDDLITNAVARLNKFLGAAGDEVISKQIISTHLNQAVLLGESVNSATQAGGSVASAVFQNSASTNLADLTLSKYQVEQLSKYISEAIEKFGQLQEVIADLLASMSNSQANRTDVAKAILQQTTA
notes: also called WT IpaB; IpaB WT; not shown: histidine tag
As for B1, the binding result is “binds”.
